From article PMC11237882 (2024) come the findings set out here.

A value given as a limit tells only on which side of the number the result lay.

Holding throughout (experiment): BLI (SUMO-peptide on tip, monomeric EVH1)
One assay has as its target T1, FAT1 (Homo sapiens (Human), UniProt Q14517).
T1 chain: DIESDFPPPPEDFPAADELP

The next assay concerns the target T2, PCDH15 (Homo sapiens (Human), UniProt Q96QU1).
T2 chain: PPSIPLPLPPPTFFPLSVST

The target in the next assay is T3, APBB1IP_1 (Homo sapiens (Human), UniProt Q7Z5R6).
T3 chain: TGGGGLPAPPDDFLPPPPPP

A further assay addresses T4, RARA (Homo sapiens (Human), UniProt P10276).
T4 chain: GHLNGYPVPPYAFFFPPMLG

The target of the next assay is T5, PRRC2B (Homo sapiens (Human), UniProt Q5JSZ5).
T5 chain: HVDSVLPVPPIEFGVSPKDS

A further assay addresses T6, DSCAM (Homo sapiens (Human), UniProt O60469).
T6 chain: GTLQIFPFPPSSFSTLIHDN

One may read the Kd as the free concentration of one partner at which half of the binding sites on the other are occupied at equilibrium, for simple one-to-one binding. Read a high Kd as weaker binding.

B1: HOMER1 (protein)
chain: MGEQPIFSTRAHVFQIDPNTKKNWVPTSKHAVTVSYFYDSTRNVYRIISLDGSKAIINSTITPNMTFTKTSQKFGQWADSRANTVYGLGFSSEHHLSKFAEKFQEFKEAARLA
As to B1, the Kd with FAT1 is 98 µM; with PCDH15 it was greater than 150 µM; with APBB1IP_1 it was greater than 150 µM; with RARA, 100 µM; with PRRC2B it was 100 µM.

B2: ENAH (protein)
chain: MSEQSICQARAAVMVYDDANKKWVPAGGSTGFSRVHIYHHTGNNTFRVVGRKIQDHQVVINCAIPKGLKYNQATQTFHQWRDARQVYGLNFGSKEDANVFASAMMHALEVLNS
For the molecule B2, the Kd with RARA, in the assay with DSCAM and with PRRC2B was greater than 150 µM in each case.
